{"source": "patent US6534035B1", "about": "“Methods of inhibiting clot formation” (President and Fellows of Harvard College, priority 1998, dated 2003)", "key": {"FXIIIa [1]": {"molecular_target": "T1, FXIIIa (Homo sapiens, UniProt P00488)", "T1 construct": "purchased American Diagnostica", "T1 sequence (P00488 39-732 limits assumed)": "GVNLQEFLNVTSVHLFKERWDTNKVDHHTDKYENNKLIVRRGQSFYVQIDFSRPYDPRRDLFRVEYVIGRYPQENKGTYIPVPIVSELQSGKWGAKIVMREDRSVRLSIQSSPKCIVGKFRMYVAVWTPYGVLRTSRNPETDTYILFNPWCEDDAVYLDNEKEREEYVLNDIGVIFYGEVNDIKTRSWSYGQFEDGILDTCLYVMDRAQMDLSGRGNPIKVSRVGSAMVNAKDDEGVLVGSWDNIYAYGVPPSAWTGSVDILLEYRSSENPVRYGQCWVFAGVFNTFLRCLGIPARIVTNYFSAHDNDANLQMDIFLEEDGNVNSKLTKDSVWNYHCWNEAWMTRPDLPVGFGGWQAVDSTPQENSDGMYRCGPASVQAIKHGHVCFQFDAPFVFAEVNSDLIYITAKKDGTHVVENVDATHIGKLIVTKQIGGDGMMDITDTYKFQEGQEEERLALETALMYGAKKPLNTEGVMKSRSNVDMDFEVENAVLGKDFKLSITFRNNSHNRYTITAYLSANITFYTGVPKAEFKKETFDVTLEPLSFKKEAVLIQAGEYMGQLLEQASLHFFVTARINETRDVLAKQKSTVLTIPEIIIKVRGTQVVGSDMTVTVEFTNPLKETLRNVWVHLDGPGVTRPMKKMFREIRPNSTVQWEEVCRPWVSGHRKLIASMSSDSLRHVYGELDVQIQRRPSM", "assay": "Crosslinking of α2AP1-24 and variant peptides to fibrin clots", "assay_type": "biochemical", "details": "0.5 mM of each peptide clotted with human fibrinogen; compared to wild type α2AP1-24", "protocol": "A 0.5 mM concentration of each peptide was clotted with human fibrinogen. After electrophoresis of the solubilized, reduced clots on 7.5% SDS-PAGE gels and transfer to PVDF membranes, the extent of crosslinking of each peptide was determined by incubating the membranes with a polyclonal antibody directed against the amino-terminus of α2AP, followed by incubation in ^125I-protein A, and exposure in a phosphorimager. Each bar reflects phosphorimage quantification of the fibrin crosslinking α2AP1-24 and the variant peptides. The mean±SD pixel volume of the quantified blots are shown.\n(§1) Experiments were performed to determine how long FXIIIa in clots could crosslink various substrates such as human ^125I -α2AP, α2AP13-24 (SEQ ID NO:2), and 5-(biotinamido)pentylamine, into fibrin. In a typical experiment, clots were prepared (50 μl final volume) in duplicate by combining fibrinogen (2 mg/ml final), CaCl2 (2 mM final), buffer (Tris-buffered saline pH 7.4) and thrombin (1 U/ml) and incubating at 37° C. Synchronous with the addition of thrombin, or up to 240 minutes afterwards, the FXIIIa substrates 5-(biotinamido)pentylamine (0.5 mM final), ^125I -α2AP (70 μg/ml final), and α2AP13-24 (0 to 1 mM final) were mixed and added to the clot. In one set of control samples, FXIIIa was inhibited with iodoacetamide (10 mg/ml) prior to the addition of substrate; to another set, no substrate was added. After 2 hours of incubation at 37° C., iodoacetamide (10 mg/ml) was added to stop the reaction. The tubes were then centrifuged at 14,000 rpm for 2 minutes, washed and compressed in 1 ml saline to remove unbound proteins, and centrifuged again at 14,000 rpm for 2 minutes. After removal of the supernatant, the clots were solubilized in 100 μL of 9M urea, pH 9.0 at 37° C. for 60 minutes. Then 100 μl of SDS reducing sample buffer was added and the clots were placed at 85° C. for 30 minutes until fully solubilized. The samples were examined by SDS-PAGE. Crosslinked ^125I-α2AP was detected and quantitated by phosphorimaging. Samples containing crosslinked α2AP13-24 and pentylamine substrates were electroblotted to PVDF membranes and detected by ^125I-streptavidin followed by phosphorimaging or by streptavidin-peroxidase followed by the developing agents 5-bromo-4-chloro-3-indolyl phosphate-nitro blue tetrazolium using methods known in the art. In experiments examining the effect of specific amino acid residues on the crosslinking of the α2AP13-24 peptide (SEQ ID NO:2) to fibrin, crosslinking was detected by immunoblotting with an anti-peptide antibody directed against this epitope followed by ^125I-protein A and phosphorimaging. In some experiments, clots were formed by mixing 25 μl pooled human fresh frozen plasma with 25 μl 30 mM CaCl2 instead of using human fibrinogen.\nAlthough FXIIIa can crosslink a number of lysine analogs to glutamine sites in macromolecules such as fibrin, its specificity for crosslinking glutamine-containing substrates (acyl donors) such as α2AP to fibrin has not been defined. To examine specificity, a wild-type α2AP fragment spanning residues 1-24 (MEPLGWQLTSGPNQEQVSPLTLLK; SEQ ID NO:16) and a panel of α2AP variant peptides (corresponding to residues 1-24 with the exception that one residue is altered from the wild type sequence; SEQ ID NO:11, 12, 13, 14, 15) was created with mutations of residues that represented other potential crosslinking sites or residues that are conserved among different α2APS from different species. […]"}, "FXIIIa [2]": {"molecular_target": "T1, FXIIIa", "assay": "Variant peptides as inhibitors of the crosslinking of α2AP13-24 into fibrin", "assay_type": "biochemical", "details": "peptides used as inhibitors", "protocol": "(§2) Experiments were performed to determine how long FXIIIa in clots could crosslink various substrates such as human ^125I -α2AP, α2AP13-24 (SEQ ID NO:2), and 5-(biotinamido)pentylamine, into fibrin. In a typical experiment, clots were prepared (50 μl final volume) in duplicate by combining fibrinogen (2 mg/ml final), CaCl2 (2 mM final), buffer (Tris-buffered saline pH 7.4) and thrombin (1 U/ml) and incubating at 37° C. Synchronous with the addition of thrombin, or up to 240 minutes afterwards, the FXIIIa substrates 5-(biotinamido)pentylamine (0.5 mM final), ^125I -α2AP (70 μg/ml final), and α2AP13-24 (0 to 1 mM final) were mixed and added to the clot. […] Crosslinked ^125I-α2AP was detected and quantitated by phosphorimaging. Samples containing crosslinked α2AP13-24 and pentylamine substrates were electroblotted to PVDF membranes and detected by ^125I-streptavidin followed by phosphorimaging or by streptavidin-peroxidase followed by the developing agents 5-bromo-4-chloro-3-indolyl phosphate-nitro blue tetrazolium using methods known in the art. In experiments examining the effect of specific amino acid residues on the crosslinking of the α2AP13-24 peptide (SEQ ID NO:2) to fibrin, crosslinking was detected by immunoblotting with an anti-peptide antibody directed against this epitope followed by ^125I-protein A and phosphorimaging. […]"}, "FXIIIa [3]": {"molecular_target": "T1, FXIIIa", "assay": "FXIIIa catalytic half-life: crosslinking of substrates into fibrin clots of various ages", "assay_type": "biochemical", "protocol": "as §1, with “In some experiments, clots were formed by mixing 25 μl pooled human fresh frozen plasma with 25 μl 30 mM CaCl2 instead of using human fibrinogen.” left out"}, "[4]": {"assay": "Activated partial thromboplastin time in heparinized ferrets", "assay_type": "in vivo, ferret", "details": "heparin bolus 100 units/kg, throughout the experiment", "protocol": "All animals received weight-adjusted heparin at 100 units/kg (bolus), a dose sufficient to keep the activated partial thromboplastin time (aPTT) above 150 seconds throughout the procedure. TPA was given as a continuous infusion over 2 hours (1 mg/kg in 5 ml of normal saline). […] The thorax was dissected and all intrathoracic structures were removed for gamma counting to detect residual thrombi. The percentage of clot lysis was determined for each ferret by dividing the total residual radioactivity in the thorax by that in the initial thrombi. A total of 28 animals was studied; three were excluded because of anesthetic-related death, improper TPA infusion, and failed embolism."}, "FXIIIa [5]": {"molecular_target": "T1, FXIIIa", "assay": "Dose-dependent crosslinking of α2AP13-24 into fibrin clots", "assay_type": "biochemical", "details": "purified human fibrinogen", "protocol": "as §2"}, "pulmonary emboli": {"system": "pulmonary emboli", "assay": "Lysis of radiolabeled pulmonary emboli in ferrets", "assay_type": "in vivo, ferret", "text": "Pulmonary embolisms were induced in ferrets using standard methods, e.g., that described in Butte et al., 1997, Circulation. 95:1886-1891). Male ferrets (weighing approximately 1 kg) were anesthetized with ketamine and acepromazine. After full anesthesia had been obtained, the jugular vein and carotid artery were exposed by an anterior midline incision and cannulated with 20G catheters. Pooled, citrated human plasma was mixed with ^125I-fibrinogen to achieve a specific activity of approximately 1,000,000 cpm/ml. Individual clots were formed by mixing ^125I-fibrinogen-labeled plasma (45 μl) with 2.5 μl of bovine thrombin (100 units/ml) and 2.5 μl of calcium chloride (0.4 M). […] The radioactive content of the clots was measured in a gamma counter immediately before injection. […] Successful embolization was evinced by the accumulation of radioactivity in the thorax.\nAll animals received weight-adjusted heparin at 100 units/kg (bolus), a dose sufficient to keep the activated partial thromboplastin time (aPTT) above 150 seconds throughout the procedure. […] The percentage of clot lysis was determined for each ferret by dividing the total residual radioactivity in the thorax by that in the initial thrombi. […]"}, "fibrinogen": {"system": "fibrinogen", "assay": "Residual fibrinogen level by sodium sulfite method", "assay_type": "in vivo, ferret", "details": "ferrets, before and after treatment", "protocol": "FIG. 2 is a bar graph showing the effects of factor XIIIa activity and TPA on residual fibrinogen levels. Fibrinogen levels were measured in 25 ferrets by sodium sulfite precipitation and expressed as a percentage of the fibrinogen level prior to the experiments (“before study” level was defined as 100%). The percent residual fibrinogen level (mean±SD) is shown for each group of 5 ferrets at the end of the experiment. The following conditions were evaluated: Control, normal factor XIIIa activity, no TPA; F13-I, factor XIIIa inhibited, no TPA; TPA, TPA with normal factor XIIIa activity; TPA+F13-I, TPA with inhibited factor XIIIa activity; TPA+α2AP-I, TPA with inhibited α2 antiplasmin-fibrin crosslinking.\nBlood samples were collected on K3EDTA (0.15% solution, final concentration) with aprotinin (50 kallikrein units/ml). Platelet-poor plasma was obtained by centrifugation of whole blood and assayed for fibrinogen by a standard sodium sulfite method such as that described by Rampling et al. 1976, Clin Chim Acta. 67:43-52."}}, "note": "“And” between values parts separate entries of the source, which are not always exact repeats. Equal values may be shown once."}
{"molecule": "MEPLGWQLTSGPNQEQVSPLTNLK (listed as Homo sapiens) [L22N, α2AP1-24 variant peptide]", "values": [{"measurement": "crosslinking of peptide to fibrin", "setting": "FXIIIa [1]", "value": "crosslinked into fibrin at rates comparable to that of the wild type"}]}
{"molecule": "Q14A: α2AP1-24 variant peptide containing mutation Q14A (MEPLGWQLTSGPNAEQVSPLTLLK; listed as Homo sapiens)", "values": [{"measurement": "competition for crosslinking of α2AP13-24 into fibrin", "setting": "FXIIIa [2]", "value": "all peptides but Q14A and V17N competed for crosslinking"}, {"measurement": "crosslinking of peptide to fibrin", "setting": "FXIIIa [1]", "value": "not efficiently crosslinked to fibrin"}]}
{"molecule": "NCCCCCNC(=O)CCCC[C@@H]1SC[C@@H]2NC(=O)N[C@@H]21", "note": "[pentylamine-biotin, 5-(biotinamido)pentylamine]", "values": [{"measurement": "residual FXIIIa crosslinking of substrate", "setting": "FXIIIa [3]; substrate added to 2 or 4 hour old clots", "value": "little residual FXIIIa crosslinking"}]}
{"molecule": "O[C@H](CS)[C@H](O)CS", "note": "(racemic) [DTT, dithiothreitol]", "values": [{"measurement": "effect of reducing agent on crosslinking in old clots", "setting": "FXIIIa [3]; added to reaction mixtures, 2 or 4 hour old clots", "value": "restored the crosslinking of pentylamine or α2AP13-24 to fibrin clots"}]}
{"molecule": "MEPLGWQLTSGPNQEAVSPLTLLK (listed as Homo sapiens) [Q16A, α2AP1-24 variant peptide]", "values": [{"measurement": "crosslinking of peptide to fibrin", "setting": "FXIIIa [1]", "value": "crosslinked into fibrin at rates comparable to that of the wild type"}]}
{"molecule": "heparin", "values": [{"measurement": "activated partial thromboplastin time (aPTT)", "setting": "[4]", "value": "above 150 seconds"}]}
{"molecule": "MEPLGWQLTSGPNQAQVSPLTLLK (MEPLGWQLTSGPNQAQVSPLTLLK; listed as Homo sapiens) [E15A, α2AP1-24 variant peptide]", "values": [{"measurement": "crosslinking of peptide to fibrin", "setting": "FXIIIa [1]", "value": "crosslinked into fibrin at rates comparable to that of the wild type"}]}
{"molecule": "V17N: α2AP1-24 variant peptide containing mutation V17N (MEPLGWQLTSGPNQEQNSPLTLLK; listed as Homo sapiens)", "values": [{"measurement": "competition for crosslinking of α2AP13-24 into fibrin", "setting": "FXIIIa [2]", "value": "all peptides but Q14A and V17N competed for crosslinking"}, {"measurement": "crosslinking of peptide to fibrin", "setting": "FXIIIa [1]", "value": "not efficiently crosslinked to fibrin"}]}
{"molecule": "hirudin [reference compound]", "values": [{"measurement": "effect on α2AP13-24 peptide-fibrin crosslinking", "setting": "FXIIIa [5]", "value": "blocked α2AP13-24 peptide-fibrin crosslinking"}]}
{"molecule": "tissue plasminogen activator [TPA]", "values": [{"measurement": "lysis of pulmonary emboli compared with other group", "setting": "pulmonary emboli; FIGS. 1A and 1B group comparisons", "value": "significantly increased lysis"}, {"measurement": "lysis of pulmonary emboli (mean±SD)", "setting": "pulmonary emboli; TPA 1 mg/kg infused over 2 hours, heparin 100 units/kg, 4 hours after embolization", "value": "32.3±7.7% and 32.2±7.7%"}, {"measurement": "residual fibrinogen level at end of study, percentage of initial value", "setting": "fibrinogen", "value": "nonspecific degradation of fibrinogen did not occur"}]}
